According to patent US20250215105A1, “ANTI-CD39 ANTIBODY” (BrightPath Biotherapeutics Co., Ltd., priority 2022, published 2025):

Assays:
[1] = tested on: human lung cancer cell line NCI-H292; test: anti-tumor activity: NCI-H292 growth with stimulated PBMCs and ATP (IncuCyte); type: cell-based; conditions: NCI-H292 with PBMCs E/T 2, ATP 500 μM
Experimental: The human lung cancer cell line NCI-H292 having red fluorescent protein (RFP) was seeded on a 96-well plate and cultured overnight. The next day, after removal of the medium, IL-2 (Miltenyi, 130-097-745) at a final concentration of 30 IU as suspended in X-VIVO-15™ medium (Lonza, 04-418Q) and an anti-human CD39 antibody or isotype control antibody at a final concentration of 0.3 to 100 μg/mL were added and the mixture was incubated at 37° C. for 30 minutes. Then, PBMCs from healthy volunteers stimulated with Dynabeads™ Human T-Activator CD3/CD28 (VERITAS, DB11131) for 10 days were added at an E/T ratio of 2 and the mixture was incubated at 37° C. for 30 minutes. […] This made it possible to evaluate the anti-tumor activity of the antibody due to its ability to promote the cytotoxic activity of PBMCs.

human CD39 [2] = biological target: T1, human CD39 (Homo sapiens, UniProt P49961); test: activity to inhibit CD39 enzyme (ATP hydrolysis by CD39-expressing cells, CellTiter-Glo); type: cell-based; set-up: CD39^hi-expressing human melanoma cell line SK-MEL-28 (ATCC, HTB-72) or human ovarian adenocarcinoma cell line OAW-42; endogenous in cells; host or cells: SK-MEL-28 (ATCC, HTB-72) or OAW-42 (CLS, 300304); conditions: SK-MEL-28 or OAW-42 cells, ATP 10 μM
T1 sequence (P49961 1-510): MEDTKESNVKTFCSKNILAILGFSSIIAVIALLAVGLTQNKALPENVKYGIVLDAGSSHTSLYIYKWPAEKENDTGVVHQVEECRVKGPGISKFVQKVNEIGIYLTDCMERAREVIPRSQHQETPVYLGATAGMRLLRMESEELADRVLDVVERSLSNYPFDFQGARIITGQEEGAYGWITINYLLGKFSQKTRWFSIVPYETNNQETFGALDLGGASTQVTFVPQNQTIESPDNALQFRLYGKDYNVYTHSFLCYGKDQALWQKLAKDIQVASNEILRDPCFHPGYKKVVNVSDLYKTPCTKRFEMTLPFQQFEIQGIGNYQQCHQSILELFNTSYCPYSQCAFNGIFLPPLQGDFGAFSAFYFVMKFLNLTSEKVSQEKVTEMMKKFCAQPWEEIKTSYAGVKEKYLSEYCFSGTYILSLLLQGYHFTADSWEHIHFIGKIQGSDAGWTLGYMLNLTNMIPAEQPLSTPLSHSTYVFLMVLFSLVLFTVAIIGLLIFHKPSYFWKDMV
Experimental: Two thousand SK-MEL-28 cells (ATCC, HTB-72), a CD39′-expressing line, suspended in 50 μl EMEM (Fujifilm, 055-08975) were seeded onto a 96-well V-bottom plate and incubated at 37° C. for 30 minutes with 150 μl of culture supernatant of single B cells. The cells were washed once with DPBS (Nacalai Tesque, 14249-24), then 100 μl of 5 μM ATP was added per well, and the mixture was incubated at 20° C. for 30 minutes. After centrifugation, 50 μl of the supernatant was separated, 50 μl CellTiter-Glo (Promega, G9243) was added and stirred, and after incubation at room temperature for 10 min, the amount of ATP was measured by chemiluminescence while using a microplate reader. The ability of B cell culture supernatant to inhibit CD39-mediated ATP hydrolysis was evaluated based on the amount of residual ATP.
The antibodies obtained in the above experiments were used to measure activity to inhibit CD39 enzyme by using the following procedure. […] After centrifugation, 50 μl of the supernatant was separated, 50 μl CellTiter-Glo was added and stirred, and after incubation at room temperature for 10 minutes, the level of chemiluminescence was measured using a microplate reader. Based on the amount of ATP consumed by SK-MEL-28 or OAW-42 cells, the ability of the antibody to inhibit CD39-mediated ATP hydrolysis was evaluated. […]

Human CD39 antigen = biological target: T2, Human CD39 antigen (Homo sapiens, UniProt P49961); test: affinity by surface plasmon resonance (SPR) analysis; conditions: Biacore 8K, 1:1 binding model
T2 sequence (P49961 1-510): T1 sequence (P49961 1-510)
Experimental: Kinetics of each antibody against their target antigen were measured using Biacore 8K (Cytiva). Each antibody to be measured was immobilized on a sensor chip (CM5) using a Mouse Antibody Capture Kit, type 2 (Cytiva, 29215281) for mouse antibodies and a Human Antibody Capture Kit, Type 2 (Cytiva, 26234600) for chimeric and humanized antibodies, respectively. Human CD39 antigen was subjected to 4-step dilution from […] to prepare each solution, the contact time was set to 120 seconds, the dissociation time was set to 600 seconds, and the flow rate was set to 30 μl/min. Under these conditions, HBS-EP+ was used as the running buffer, and each sample was then analyzed using the 1:1 binding model of multi-cycle kinetics.

human CD39 [3] = biological target: T1, human CD39; test: CD39 binding analysis (FCM) using human CD39-overexpressing cells; conditions: 293T-hCD39 or Jurkat-hCD39 cells
Experimental: 3.1 CD39 binding analysis (FCM analysis) (using human CD39) Binding to target antigen-expressing cells was analyzed by FCM analysis using human CD39-overexpressing cells. The human CD39-overexpressing cells were generated using a lentiviral vector system (OriGene, PS100069). Lentiviral particles carrying the human CD39 gene (Gene ID: 953) as the target gene together with the puromycin resistance gene were generated and used to infect HEK293T or Jurkat cells therewith. Then, the cells were cultured in the presence of puromycin. HEK293T or Jurkat cells ([…] or Jurkat-hCD39) in which the target gene was integrated into the genome and which became positive for human CD39 were collected and used for FCM analysis. Test or isotype control antibodies at a final concentration of 2 μg/mL or at the concentrations indicated in the figure were reacted with 1×10^5 cells for 15 minutes at 4° C., followed by washing twice with 0.5% BSA, 2 mM EDTA, and D-PBS. After washing, a fluorescent-labeled secondary antibody (anti-human IgG Fc, HP6017) was added, and the cells were stained at 4° C. for 15 minutes under light-shielded conditions, followed by washing twice in a similar manner. After addition of 7AAD (BioLegend, 420404), fluorescence intensity was measured using a flow cytometer (FACSVerse, BD). Antibody binding was evaluated based on the fluorescence intensity obtained.

Cynomolgus monkey CD39 = test: CD39 binding analysis (FCM) using Cynomolgus monkey CD39-overexpressing cells; conditions: 293T-cynoCD39 cells, 2 μg/ml antibody
Experimental: Binding to target antigen-expressing cells was analyzed using Cynomolgus monkey CD39-overexpressing cells. This analysis was used to check cross-reactivity. The Cynomolgus monkey CD39-overexpressing cells were generated using a lentiviral vector system (OriGene, PS100069). Lentiviral particles carrying the Cynomolgus monkey CD39 gene (Gene ID: 102132860) as the target gene together with the puromycin resistance gene were generated and used to infect HEK293T cells therewith. Then, the cells were cultured in the presence of puromycin. HEK293T cells (293T-cynoCD39) in which the target gene was integrated into the genome and which became positive for Cynomolgus monkey CD39 were collected and used for FCM analysis. The cells were reacted with 2 μg/ml test antibody or isotype control antibody, stained with a fluorescence-labeled secondary antibody, and evaluated for antibody binding based on the fluorescence intensity obtained by flow cytometry analysis.

B1: T-31414h1lala: anti-CD39 antibody with variable regions described in US2019/0062448, IgG1-lala constant region (antibody, V domains shown)
VH: QVQLVQSGAEVKKPGASVKVSCKASGYTFKSYEMHWVRQAPGQGLEWMGRINPSVGSTWYAQKFQGRVIMIRDTSTSTVYMELSSLRSEDTAVYYCARGKREGGTEYLRNWGQGTLVTVSS
VL: EIVLIQSPGILSLSPGERATLSCRASQSVSSSYLAWYQQKPGQAPRLLIYGASSRATGIPDRFSGSGSGTDFTLTISRLEPEDFAVYYCQQYHSYITFGGGTKVEIK
modifications: IgG1 LALA constant regions; T-31414 VH; T-31414 VL
notes: anti-CD39 antibody with variable regions described in US2019/0062448, IgG1-lala constant region
growth rate of cancer cells [1]: approximately 0.9

B2: HuP4_IB_sc: humanized scFvFc obtained by humanizing P4_sc (antibody, V domains shown)
VH: QVQLLESGPELVKPSATLSITCTVSGFSLTNYGVHWIRQAPGKGLEWLGVILRRGSTDYNAAFMSRFTISKDNSKNQVYFKLRSVTAEDTAVYYCAKTAVVAGDYFDYWGQGTMVTVSS
VL: DIQMTQSHSTLSLSVGDRVTITCKASQNVGTNVAWYQQKPGQPPKALIYSASYRYSGVPSRFSGSGSGTDFTLTISSVQAEDVAVYYCQQYNSYPLTFGPGTKLEIK
modifications: left off: another chain or arm of the molecule; a dimerising Fc or GST; small tags and cut ends
notes: humanized scFvFc obtained by humanizing P4_sc
CD39 inhibitory activity (human CD39 [2]): favorable CD39 inhibitory activity

B3: P4_sc: anti-CD39 scFvFc (Fc silent) from phage display (antibody, V domains shown)
VH: QVQLKESGPSLVQPSQSLSITCTVSGFSLTNYGVHWVRQSPGKGLEWLGVILRRGSTDYNAAFMSRLSITKDNSKSQVFFKMNSLQADDTAIYYCAKTAVVAGDYFDYWGQGTTLTVSS
VL: DIVMTQSHKFMSTSVGDRVSVTCKASQNVGTNVAWYQQKPGQSPKALIYSASYRYSGVPDRFTGSGSGTDFTLTISNVQSEDLAEYFCQQYNSYPLTFGTGTKLEIK
modifications: left off: another chain or arm of the molecule; a dimerising Fc or GST; small tags and cut ends
notes: anti-CD39 scFvFc (Fc silent) from phage display
affinity for human CD39 (KD) (Human CD39 antigen): favorable affinity
affinity for human CD39 on the cell surface (human CD39 [3]): favorable affinity
binding to monkey CD39 (Cynomolgus monkey CD39): bound to monkey CD39
CD39 inhibitory activity (human CD39 [2]): activity to inhibit human CD39
